Experiments:
[1] = biological target: T1, u-PA/Ic (purified two-chain enzyme) (human, UniProt P00749 21-431); test: inhibition kinetics, 2nd order rate constant
T1 construct: F30V (chymotrypsin numbering); Full-length u-PA from COS-1 cells, made two-chain with plasmin-sepharose; also called u-PA/Ic (30)
Source text: (§1) The indirect chromogenic assay as described in Part D above was used to determine the residual enzyme activity remaining as a function of time.
(§2) The rate constants for inhibition of wild-type or mutant u-PA by PAI-1 were under pseudo-first order conditions for an excess of PAI-1 over u-PA as described previously (see e.g., Holmes et al. (1987) Biochemistry, 26: 5133-5140; Beatty et al. (1980) J. Biol. Chem., 255:3931-3934; Madison et al. (1990) PNAS, 87: 3530-3533; Madison et al. (1993) Methods Enzymol., 223:249-271). […] Following incubation, the mixtures were diluted and the residual enzymatic activity was determined in a standard chromogenic assay as set forth in D above. Data were analyzed by plotting In (residual activity/initial activity) versus time and determining the slope of the resulting straight line. […] rate constants were then derived by dividing the slope by the concentration of the inhibitor in the reaction.
(§3) Following preincubation, the mixtures were quenched with an excess of neutralizing anti-PAI antibodies and residual enzymatic activity was measured in the indirect chromogenic assay. The indirect, chromogenic assays were compared with control reactions containing no PAI-1 or to which PAI-1 was added after preincubation and addition of anti-PAI-1 antibody, plasminogen and Spectrozyme PL to the reaction mixture.

[2] = biological target: T2, u-PA/IIIa (purified two-chain enzyme) (human, UniProt P00749 21-431); test: inhibition kinetics, 2nd order rate constant
T2 construct: F30V/K82E/V159A (chymotrypsin numbering); Full-length u-PA from COS-1 cells, made two-chain with plasmin-sepharose; also called u-PA/IIIa (30, 82, 159)
Source text: as §1, §2, §3

[3] = biological target: T3, u-PA/IVb (purified two-chain enzyme) (human, UniProt P00749 21-431); test: inhibition kinetics, 2nd order rate constant
T3 construct: F30V/K82E/V159A/E80G/E84K/I89V/K187E (chymotrypsin numbering); Full-length u-PA from COS-1 cells, made two-chain with plasmin-sepharose; also called u-PA/IVb (30, 80, 82, 84, 89, 159, 187)
Source text: as §1, §2, §3

[4] = biological target: T4, u-PA/IVa (purified two-chain enzyme) (human, UniProt P00749 21-431); test: inhibition kinetics, 2nd order rate constant
T4 construct: F30V/K82E/V159A/E80G/I89V/K187E (chymotrypsin numbering); Full-length u-PA from COS-1 cells, made two-chain with plasmin-sepharose; also called u-PA/IVa (30, 80, 82, 89, 159, 187)
Source text: as §1, §2, §3

[5] = biological target: T5, u-PA/IIb (purified two-chain enzyme) (human, UniProt P00749 21-431); test: inhibition kinetics, 2nd order rate constant
T5 construct: F30V/K82E (chymotrypsin numbering); Full-length u-PA from COS-1 cells, made two-chain with plasmin-sepharose; also called u-PA/IIb (30, 82)
Source text: as §1, §2, §3

[6] = biological target: T6, u-PA/IIIb (purified two-chain enzyme) (human, UniProt P00749 21-431); test: inhibition kinetics, 2nd order rate constant
T6 construct: F30V/K82E/T39A/V159A (chymotrypsin numbering); Full-length u-PA from COS-1 cells, made two-chain with plasmin-sepharose; also called u-PA/IIIb (30, 39, 82, 159)
Source text: as §1, §2, §3

[7] = biological target: u-PA/IIb (phage) (human, UniProt P00749 179-431); test: phage display selection: stable complex with His-tagged PAI-1/69 bait captured on Cu-sepharose; increased sensitivity against PAI-1/69
Experimental: (§4) In brief, 5 μl (˜2×10¹² to ˜1×10¹³) u-PA phage, containing an equal representation of u-PA phage from all three u-PA phage libraries (0.2, 0.5 and 0.9% mutagenesis frequency), was mixed with 5 μl bait substrate (from 0.1 to 1.0 μM PAI-1/RRAR or PAI-1/69) and 10 μl 10× indirect buffer pH 7.4 (0.5 M Tris, 1.0 M NaCl, 10 mM EDTA, 0.1% Tween 80) in a total volume of 100 μl (i.e. reaction contained 80 μl H₂O).
(§5) The u-PA phage-PAI-1 inhibitor complexes were captured using CuSO₄ activated sepharose. Pre-activation of the chelating sepharose (200 μl; Pharmacia) was accomplished by treatment with CuSO₄ (100 mM). The CuSO₄ activated sepharose was blocked with 0.5% BSA in PBS buffer for 1 hour at room temperature. 100 μl of BSA blocked sepharose beads was added to 100 μl of the above panning mixture reaction in the presence of 800 μl of binding buffer (0.5 M NaCl, 20 mM Tris, 20 mM immidozole, pH7.4) to capture the His-tagged PAI-1 inhibitor-u-PA phage complexes. The incubation was continued for another 1 hour at room temperature. Next, the panning mixture was centrifuged for 1 min at 2000 rpm and the sepharose beads containing bound u-PA phage-PAI-1 inhibitor complexes were washed with 1 ml of binding buffer to remove unbound phages. The washing step was repeated 5-10 times and the beads containing bound complexes were transferred to new tubes after each wash to avoid any potential “carry over” of non-specific phages.

[8] = biological target: u-PA/Id (phage) (human, UniProt P00749 179-431); test: as above
Experimental: as §4, §5

[9] = biological target: u-PA/IVb (phage) (human, UniProt P00749 179-431); test: as above
Experimental: as §4, §5

[10] = biological target: u-PA/Ib (phage) (human, UniProt P00749 179-431); test: as above
Experimental: as §4, §5

[11] = biological target: u-PA/IVa (phage) (human, UniProt P00749 179-431); test: as above
Experimental: as §4, §5

[12] = biological target: u-PA/IIIb (phage) (human, UniProt P00749 179-431); test: as above
Experimental: as §4, §5

[13] = biological target: u-PA/Ic (phage) (human, UniProt P00749 179-431); test: as above
Experimental: as §4, §5

[14] = biological target: u-PA/IIc (phage) (human, UniProt P00749 179-431); test: as above
Experimental: as §4, §5

[15] = biological target: u-PA/IIa (phage) (human, UniProt P00749 179-431); test: as above
Experimental: as §4, §5

[16] = biological target: u-PA/IIIc (phage) (human, UniProt P00749 179-431); test: as above
Experimental: as §4, §5

[17] = biological target: u-PA/Ia (phage) (human, UniProt P00749 179-431); test: as above
Experimental: as §4, §5

[18] = biological target: u-PA/IIIa (phage) (human, UniProt P00749 179-431); test: as above
Experimental: as §4, §5

[19] = biological target: u-PA/IIId (phage) (human, UniProt P00749 179-431); test: as above
Experimental: as §4, §5

Measured: binding result

B1: mutant PAI-1/69 inhibitor (other)
chain: VHHPPSYVAHLASDFGVRVFQQVAQASKDRNVVFSPYGVASVLAMLQLTTGGETQQQIQAAMGFKIDDKGMAPALRHLYKELMGPWNKDEISTTDAIFVQRDLKLVQGFMPHFFRLFRSTVKQVDFSEVERARFIINDWVKTHTKGMISNLLGKGAVDQLTRLVLVNALYFNGQWKTPFPDSSTHRRLFHKSDGSTVSVPMMAQTNKFNYTEFTTPDGHYYDILELPYHGDTLSMFIAAPYEKEVPLSALTNILSAQLISHWKGNMTRLPRLLVLPKFSLETEVDLRKPLENLGMTDMFRQFQADFTSLSDQEPLHVAQALQKVKIEVNESGTVASSSTAVIPFGRSAPEEIIMDRPFLFVVRHNPTGTVLFMGQVMEP
notes: not shown: N-terminal poly histidine residues from the pPAIST7HS vector
binds: all assays above
